According to patent publication US20110033476A1 (published 2011):

Legend:
[1] = biological target: M2 protein of influenza A/Puerto Rico/8/34 (H1N1) (Influenza A virus A/Puerto Rico/8/34 (H1N1)) (UniProt P06821); assay: ELISA on purified A/Puerto Rico/8/34 virus coated on wells (FIG. 14a)
[2] = biological target: M2 protein of influenza A/Puerto Rico/8/34 (H1N1) (Influenza A virus A/Puerto Rico/8/34 (H1N1)) (UniProt P06821); assay: surface plasmon resonance, Fab binding to virus
[3] = biological target: T1, M2 protein of influenza A/Puerto Rico/8/34 (H1N1) (Influenza A virus A/Puerto Rico/8/34 …, UniProt P06821 1-97); assay: ELISA on influenza virus, crude supernatant (FIG. 9)
T1 construct: whole, on cells
T1 sequence (P06821 whole entry): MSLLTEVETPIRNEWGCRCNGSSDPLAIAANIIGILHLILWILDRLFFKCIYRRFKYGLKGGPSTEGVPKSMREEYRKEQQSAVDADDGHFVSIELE

Sequence of M2 protein of influenza A/Puerto Rico/8/34 (H1N1) (Influenza A virus A/Puerto Rico/8/34 (H1N1)) (P06821 whole entry): as above

Molecule | EC50 [1] [µg/mL] | Kd [2] [nM] | koff [2] [s⁻¹] | kon [2] [M⁻¹ s⁻¹] | binding result [3]
TCN-031 (antibody) | 0.1 | – | – | – | –
TCN-031 Fab | – | 14 | 0.014 | 1e+06 | –
TCN-032 (antibody) | 0.1 | – | – | – | –
TCN-032 Fab | – | 3.2 | 0.0023 | 740000 | –
23K12 (antibody, V domains shown) VH: EVQLVESGGGLVQPGGSLRISCAASGFTVSSNYMSWVRQAPGKGLEWVSVIYSGGSTYYADSVKGRFSFSRDNSKNTVFLQMNSLRAEDTAVYYCARCLSRMRGYGLDVWGQGTTVTVS VL: DIQMTQSPSSLSASVGDRVTITCRTSQSISSYLNWYQQKPGKAPKLLIYAASSLQSGVPSRFSGSGSGTDFTLTISGLQPEDFATYYCQQSYSMPAFGQGTKLEIK | – | – | – | – | binds
